Legend:
[1] = biological target: T1, SARS-CoV-1 Receptor Binding Domain (RBD) protein (SARS-CoV-1, UniProt P59594 306-527); assay: SPR Carterra LSA, scFv captured via anti-V5
T1 construct: also called SARS1

[2] = biological target: T2, MERS Receptor Binding Domain (RBD) protein (Middle East Respiratory Syndrome (MERS) …, UniProt K9N5Q8 367-606); assay: SPR Carterra LSA, scFv captured via anti-V5
T2 construct: also called Middle East Respiratory Syndrome (MERS) virus
T2 sequence: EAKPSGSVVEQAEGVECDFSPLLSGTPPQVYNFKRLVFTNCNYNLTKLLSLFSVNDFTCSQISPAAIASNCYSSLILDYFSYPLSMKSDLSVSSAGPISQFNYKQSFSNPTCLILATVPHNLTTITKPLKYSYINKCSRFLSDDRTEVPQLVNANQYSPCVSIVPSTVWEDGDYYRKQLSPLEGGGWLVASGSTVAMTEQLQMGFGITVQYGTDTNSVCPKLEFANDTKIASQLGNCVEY

| Binder | binding result [1] | binding result [2] |
| --- | --- | --- |
| COVID19_P09_G02 (scFv, V domains shown) VH: QVQLVQSGAEVKKPGSSVKVSCKASGGTFSSYAISWVRQAPGQGLEWMGIIYPGDSTTNYSQKFQGRVTITADESTSTAYMELSSLRSEDTAVYYCAGHWGISTPMDVWGQGTLVTVSS VL: not shown | no binding (tested: 300 nM) | no binding (tested: 300 nM) |
| COVID19_P09_C09 (scFv, V domains shown) VH: QVQLVQSGAEVKKPGSSVKVSCKASGGTFSSYAISWVRQAPGQGLEWMGIIDPSGGSTSYAQQFQGRVTITADESTSTAYMELSSLRSEDTAVYYCAGGSGISTPMDVWGQGTLVTVSS VL: not shown | no binding (tested: 300 nM) | no binding (tested: 300 nM) |
| COVID19_P09_E11 (scFv, V domains shown) VH: QVQLVQSGAEVKKPGSSVKVSCKASGGTFSNHAISWVRQAYGQGLEWMGIIYPGDGTTRYSQKFQGRVTITADESTSTAYMELSSLRSEDTAVYYCAGGSGISTPMDVWGQGTLVTVSS VL: not shown | no binding (tested: 300 nM) | no binding (tested: 300 nM) |
| COVID19_P21_E12 (scFv, V domains shown) VH: QVQLVQSGAEVKKPGSSVKVSCKASGGTFISYAISWVRQAPGQGLEWMGGIIPTLGTYNYAQKFQGRVTITADESTSTAYMELSSLRSEDTAVYYCAGSWGISTPMDVWGQGTLVTVSS VL: not shown | no binding (tested: 300 nM) | no binding (tested: 300 nM) |
| COVID19_P09_H08 (scFv, V domains shown) VH: QVQLVQSGAEVKKPGSSVKVSCKASGGTFSSYAISWVRQAPGQGLEWMGGIIPIFGTTNYAQKFQGRVTITADESTSTAYMELSSLRSEDTAVYYCAGEWGISTPMDVWGQGTLVTVSS VL: not shown | no binding (tested: 300 nM) | no binding (tested: 300 nM) |
| COVID19_P09_E05 (scFv, V domains shown) VH: QVQLVQSGAEVKKPGSSVKVSCKASGGTFSSYAISWVRQAPGQGLEWMGIIYPGDSTTRYSQKFQGRVTITADESTSTAYMELSSLRSEDTAVYYCYSGSGISTPMDVWGQGTLVTVSS VL: not shown | no binding (tested: 300 nM) | no binding (tested: 300 nM) |
| COVID19_P09_B07 (scFv, V domains shown) VH: QVQLVQSGAEVKKPGSSVKVSCKASGGTFSSYAISWVRQAPGQGLEWMGGIIPTLGTANYAQKFQGRVTITADESTSTAYMELSSLRSEDTAVYYCAGSWGISTPMDVWGQGTLVTVSS VL: not shown | no binding (tested: 300 nM) | no binding (tested: 300 nM) |
| COVID19_P10_B06 (scFv, V domains shown) VH: QVQLVQSGAEVKKPGSSVKVSCKASGGTFSSYAISWVRQAPGQGLEWMGIIYPGDSTTRYSQKFQGRVTITADESTSTAYMELSSLRSEDTAVYYCYSGSGISTPMDVWGQGTLVTVSS VL: not shown | no binding (tested: 300 nM) | no binding (tested: 300 nM) |
| COVID19_P09_A09 (scFv, V domains shown) VH: QVQLVQSGAEVKKPGSSVKVSCKASGGTFSSYAISWVRQAPGQGLEWMGIIYPGDSTTRYSQKFQGRVTITADESTSTAYMELSSLRSEDTAVYYCYSGSGISTPMDVWGQGTLVTVSS VL: not shown | no binding (tested: 300 nM) | no binding (tested: 300 nM) |
| COVID19_P22_E12 (scFv, V domains shown) VH: QVQLVQSGAEVKKPGSSVKVSCKASGGTFSSYAINWVRQAPGQGLEWMGGIIPVLHTVDYAQRLQGRVTITADESTSTAYMELSSLRSEDTAVYYCAGEWGISTPMDVWGQGTLVTVSS VL: not shown | no binding (tested: 300 nM) | no binding (tested: 300 nM) |
| COVID19_P22_F07 (scFv, V domains shown) VH: QVQLVQSGAEVKKPGSSVKVSCKASGGTFSSYAISWVRQAPGQGLEWMGGIIPIFGSTASYAQKFQGRVTITADESTSTAYMELSSLRSEDTAVYYCAGEWGISTPMDVWGQGTLVTVSS VL: not shown | no binding (tested: 300 nM) | no binding (tested: 300 nM) |
